Experimental data from patent US10821189B2, “CD38 ligand-drug conjugates for targeted cancer therapy” (THE METHODIST HOSPITAL SYSTEM, priority 2015, dated 2020).

T1: cellular CD38 proteins from MM cells (MM1S) (Homo sapiens, UniProt P28907)
T1 construct: cells were lysed in radioimmunoprecipitation assay (RIPA) buffer; endogenous in cells; host or cells: MM1S (CD38+ myeloma cell line), RIPA lysate
T1 sequence (P28907 1-300): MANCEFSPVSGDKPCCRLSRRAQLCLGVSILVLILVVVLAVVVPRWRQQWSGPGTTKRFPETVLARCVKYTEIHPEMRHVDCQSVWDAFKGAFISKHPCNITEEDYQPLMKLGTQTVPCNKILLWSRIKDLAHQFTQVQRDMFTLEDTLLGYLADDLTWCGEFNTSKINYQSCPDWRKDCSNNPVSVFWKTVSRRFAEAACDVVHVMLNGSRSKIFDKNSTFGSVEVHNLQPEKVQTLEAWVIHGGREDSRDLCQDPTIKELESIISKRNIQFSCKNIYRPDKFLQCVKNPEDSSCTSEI

B1: Aptamer#1S: truncated 61-mer of Aptamer#1 inheriting the intact stem-loop structure, SEQ ID NO: 2 (nucleic acid)
DNA: TCCAGAGTGACGCAGCAGCCAACGTGCTTTCTACCTTATTTTCCGTCACTCTCACTCTGGA
modifications: DNA, backbone and methylation of C not given here; further chemistry not fully specified

Tests used:
[1] = DNase I digestion, release of free DOX; assay type: physicochemical
MM cells (RPMI8226) = test: Intracellular DOX delivery by confocal microscopy, MM cells; assay type: cell-based, Human; details: RPMI8226, 2 h treatment, equal molar DOX
Description: (§1) CD38+ MM and CD38− non-MM cells were incubated with free DOX (0.5 μmol/L final concentration) or ApDC (final equivalent concentration of aptamer was 0.1 μmol/L and DOX—0.5 μmol/L) for 1 hour. After washing, cells were resuspended with fresh medium, cultured for 2 hours, and then examined under a 40× objective (Olympus FV 1000 confocal microscope). DOX fluorescence was excited with a 5 mW, 488 nm Ar+ laser.

control cells (HDLM2) [2] = test: Intracellular DOX delivery by confocal microscopy, control cells; assay type: cell-based; details: HDLM2, 2 h treatment, equal molar DOX
Description: as §1

[3] = system: orthotopic MM tumors (RPMI8226GL); test: Orthotopic MM xenograft mouse model; assay type: in vivo, NOD/SCID IL2rg−/− mice; details: 0.5 mg/kg Dox, every other day, 13 treatments, observed up to 60 days
Description: 0.5×10^6 RPMI8226 GL cells were inoculated bilaterally into tibiae of 8- to 10-week-old NOD/SCID IL2rg−/− mice. Engraftment was monitored by weekly whole-body bioluminescence imaging on Xenogen IVIS imaging system, as previously reported (Wen, J., Feng, Y, Bjorklund, C. C., Wang, M., Orlowski, R. Z., Shi, Z. Z., Liao, B., O'Hare, J., Zu, Y, Schally, A. V., et al. 2011. Luteinizing Hormone-Releasing Hormone (LHRH)-I antagonist cetrorelix inhibits myeloma cell growth in vitro and in vivo. Mol Cancer Ther 10:148-158). Starting with day 6, mice were treated with free DOX (0.5 mg/kg) or an equivalent ApDC amount (6 mice per group) every other day (13 treatments total). Treatments were administered via the tail vein injection. Bioluminescence intensities representative of tumor mass were quantified by Living Image 3.1. Mice were euthanized by CO2 as they became moribund and their survival curves were plotted with SPSS 10 statistical software (SPSS Inc., Chicago, Ill., USA). All experiments were approved by the IACUC of the Houston Methodist Research Institute. Cells isolated from tumor tissues were examined under a fluorescence microscope for GFP expression. […]

MM cells (MM1S) = test: Cell binding assay of Cy3-labeled aptamers by flow cytometry, CD38+ MM cells; design: species or system Human; details: Cy3-labeled aptamer
Description: (§2) The top-20 enriched aptamer sequences were synthesized to include Cy3 modification and their affinity and specificity analyzed by flow cytometry. Aptamer#1S was derived by truncating Aptamer#1 based on ValFold software structural prediction (VALWAY Technology Center, NEC Soft Ltd., Tokyo, Japan) (Navani, N. K., Mok, W. K., and Yingfu, L. 2009. In vitro selection of protein-binding DNA aptamers as ligands for biosensing applications. Methods Mol Biol 504:399-415).
(§3) For aptamer staining, cells were stained with Cy3-labeled aptamer at 50 nmol/L (for flow cytometry analysis) or 100 nmol/L (for fluorescence microscopy, Olympus America, Melville, N.Y.) for 30 minutes. For 5(6)-Carboxyfluorescein diacetate N-hydroxysuccinimidyl ester (CFSE, Abcam, Cambridge, Mass.) staining, CD38-control cells were pre-stained with 0.5 μmol/L CFSE for 15 minutes according to the manufacturer's specifications and mixed with unlabeled CD38+MM cells, followed by Cy3-labeled aptamer staining for 30 minutes. For antibody staining, cultured cells or mononuclear cells freshly isolated from MM patient bone marrow samples were stained with antibody (BioLegend) as specified for 15 minutes.

control cells (HDLM2) [4] = test: Cell binding assay of Cy3-labeled aptamers by flow cytometry, CD38-negative control cells
Description: as §2, §3

[5] = system: CD38+ (RPMI8226 and NCI-H929) and CD38− (K299 and Jeko1) cell lines; test: Cell binding in additional CD38+ and CD38− cell lines
Description: as §3

[6] = molecular target: T1, cellular CD38 proteins from MM cells (MM1S); test: Precipitation of cell lysate proteins with biotin-labeled aptamers, western blot with anti-CD38 antibody; assay type: binding; details: MM1S lysates
Description: Immunoprecipitation with biotin-labeled aptamers was performed as previously reported (Shi, F., Cheng, Y. F., Wang, X. L., and Edge, A. S. 2010. Beta-catenin up-regulates Atohl expression in neural progenitor cells by interaction with an Atohl 3′ enhancer. J Biol Chem 285:392-400). In brief, cells were lysed in radioimmunoprecipitation assay (RIPA) buffer supplemented with Halt protease and phosphatase inhibitor cocktail (Thermo Fisher Scientific). Biotin-labeled aptamers were incubated with lysates for 2 hours at 4° C. in SELEX binding buffer supplemented with Halt protease and phosphatase inhibitor cocktail. Aptamer-bound proteins were collected with streptavidin agarose resin (Thermo Fisher Scientific) following 1 hour incubation at 4° C. Precipitated proteins were washed 5 times with SELEX washing buffer supplemented with Halt protease and phosphatase inhibitor cocktail, boiled in sample buffer, and supernatants were analyzed by western blotting using an anti-CD38 antibody (Cell Signaling Technology, Danvers, Mass.). […]

cultured MM cells (MM1S) = test: Fluorescence microscopy of a cell mixture stained with Cy3-labeled aptamer, MM cells; assay type: cell-based, Human
Description: as §3

[7] = system: CD38 negative control cells (HDLM2); test: Fluorescence microscopy of a cell mixture stained with Cy3-labeled aptamer, control cells; assay type: cell-based; details: control cells pre-stained in green
Description: as §3

[8] = Aptamer biostability in human serum, gel electrophoresis; assay type: in vitro ADME; details: human serum at 37° C.
Description: (§4) In vitro biostability of Aptamer#1S was evaluated as previously described (49). In brief, the aptamer was incubated with human serum (Atlanta Biologicals) for 24 hours, and samples were collected at different times using phenol-chloroform extraction. The amount of undigested aptamer was visualized on a 5% agarose gel. In vivo experiments were done in accordance with the institutional guidelines for the use of laboratory animals. To determine the in vivo biostability of Aptamer#1S, 2×10^6 RPMI8226GL and K299GL cells were inoculated subcutaneously into 8- to 10-week-old NOD/SCID IL2rg−/− mice (Jackson Laboratory, Bar Harbor, Me.). Tumor growth was monitored by weekly whole-body bioluminescence imaging using Xenogen IVIS imaging system (PerkinElmer, Waltham, Mass.). Once tumors formed, 5 ng Cy5.5-labeled APTAMER#1S dissolved in PBS was injected via the tail vein and its signal was monitored on the IVIS system.

[9] = system: xenograft tumors of MM (RPMI8226GL); test: Whole body fluorescent imaging of Cy5.5-labeled aptamer, MM tumor; assay type: in vivo, NOD/SCID IL2rg−/− mice
Description: as §4

[10] = system: xenograft tumors of lymphoma (K299GL); test: Whole body fluorescent imaging of Cy5.5-labeled aptamer, control tumor; assay type: in vivo, NOD/SCID IL2rg−/− mice; details: control tumor in the same mouse
Description: as §4

[11] = DOX loading capacity by quenching of DOX fluorescence; assay type: physicochemical; details: components alone, FIG. 3C
Description: DOX was purchased from Thermo Fisher Scientific. Since DOX preferentially binds to double-stranded 5′-GC-3′ or 5′-CG-3′ repeats (Meng, L., Yang, L., Zhao, X., Zhang, L., Zhu, H., Liu, C., and Tan, W. 2012. Targeted delivery of chemotherapy agents using a liver cancer-specific aptamer. PLoS One 7:e33434), CG repeats were added to the 5′ end of Aptamer#1S to make the modified Aptamer#1S/CG-Cargo sequence. To determine the optimal molar ratio of aptamer to DOX, Apamer#1S/CG-Cargo sequence was heated at 95° C. for 5 minutes, cooled immediately on ice for 15 minutes, and then incubated with a fixed concentration of DOX (final concentration of DOX was 0.5 μmol/L) at various aptamer/DOX ratios ranging from 1:100 to 1:0.5. After 1 hour, the fluorescence (λEx=[…], λEm=[…]) was measured with a Synergy4 analyzer (BioTek, Winooski, Vt.). The minimal ratio at which the fluorescence of DOX was quenched to the maximal extent was determined as the optimal molar ratio (1:5 of aptamer to DOX) (29).

| Molecule | fluorescence change after DNase treatment [1] | intracellular DOX delivery into MM cells (MM cells (RPMI8226)) | intracellular DOX delivery into control cells (control cells (HDLM2) [2]) | survival of mice bearing orthotopic MM tumors [3] | binding to MM cells (MM1S) (MM cells (MM1S)) | binding to control cells (HDLM2) (control cells (HDLM2) [4]) | affinity and specificity in additional MM and control cells [5] | precipitation of cellular CD38 protein [6] | targeting of MM cells in cell mixture (cultured MM cells (MM1S); Cy3-labeled aptamer) | internalization into MM cells (cultured MM cells (MM1S); intracellular signals) | reaction with control cells in cell mixture [7] | time stable in human serum [8] | accumulation in MM tumor ([9]; Cy5.5-labeled, systemic administration) | duration of specific imaging signals ([9]; post systemic administration) | accumulation in control tumor [10] | drug loading capacity [11] |
| --- | --- | --- | --- | --- | --- | --- | --- | --- | --- | --- | --- | --- | --- | --- | --- | --- |
| COc1cccc2c1C(=O)c1c(O)c3c(c(O)c1C2=O)C[C@@](O)(C(=O)CO)C[C@@H]3O[C@H]1C[C@H](N)[C@H](O)[C@H](C)O1 [free DOX, doxorubicin] | no change | non-specific intracellular drug accumulation | non-specific intracellular drug accumulation | no effect on mouse survival |  |  |  |  |  |  |  |  |  |  |  |  |
| B1 |  |  |  |  | specifically targeted MM cells | did not react to CD38-negative control cells | further confirmed | specifically reacted to and immunoprecipitated cellular CD38 proteins | selectively targeted MM cells | internalized into the MM cells | did not react to control cells | ≥ 24 h | selectively accumulated in MM tumor | up to 12 h | not in control tumor | very limited drug loading capacity |
